Series [1] concerns the target Mononine (purified Factor IX) (UniProt P00740).
The target in series [2] is Recombinant human Factor IX immunoprecipitated from supernatants of GPIIb-FIX(WT.I1)-transfected HEL cells (UniProt P00740).

Results on one substance are retold here after patent US6884616.

Turning to “Factor XIa (Enzyme Research Lab., Swansea, UK)”, the “FIX cleavage after incubation with FXIa (rate of activation and protein profile)” value in series [1] was “The rate of activation and the protein profile from HEL supernatants was similar to the results obtained with Mononine”. The “FIX cleavage after incubation with FXIa (immunoblot of immunoprecipitated FIX, enzyme/substrate 1/40)” value in series [2] is “activation of the immunoprecipitated FIX from HEL cells resulted in the appearance of two bands corresponding to the heavy chain (29 kDa) and the light chain (19 kDa)”.
